Starred links: 1 amine or outer side, 2 acyl side, 3 side chain; linkers in the order of their positions; H or OH if unused. Positions of bridges follow the written chain, without caps; N, C: chain ends. Non-standard residues stand in square brackets, D forms with d. No end group written: not given here. Trimesoyl = O=C(c1cc(C(=O)[*:2])cc(C(=O)[*:3])c1)[*:1]; Phe(4-Cl) = N[C@@H](Cc1ccc(Cl)cc1)C(=O)O; Phe(4-F) = N[C@@H](Cc1ccc(F)cc1)C(=O)O; 2Nal = N[C@@H](Cc1ccc2ccccc2c1)C(=O)O; d2Nal = N[C@H](Cc1ccc2ccccc2c1)C(=O)O; βAsp = O=C(O)[C@H](CC(=O)[*:2])N[*:1]; Phg = N[C@H](C(=O)O)c1ccccc1; Nle = CCCC[C@H](N)C(=O)O; Orn = NCCC[C@H](N)C(=O)O; Dap = NC[C@H](N)C(=O)O; TMA = not defined here; βAla = NCCC(=O)O
Legend:
Settings in all cases: both partners purified
[1] = biological target: T1, Ehrlichia translocated factor-1 (Etf-1) (Ehrlichia chaffeensis, UniProt Q2GG12 1-380); experiment: fluorescence polarisation
[2] = biological target: T1, Ehrlichia translocated factor-1 (Etf-1); experiment: fluorescence polarisation; remark: listed apart in the source
[3] = biological target: T2, Ehrlichia translocated factor-1 (Etf-1), recombinant 6×His-Etf-1 fusion protein (E. chaffeensis, UniProt Q2GG12 1-380); experiment: fluorescence polarisation
[4] = biological target: T2, Ehrlichia translocated factor-1 …; experiment: fluorescence polarisation; remark: listed apart in the source
[5] = biological target: T3, recombinant full-length BECN1 protein (Beclin 1) (human, UniProt Q14457 1-450); experiment: SPR; OpenSPR; biotinylated rEtf-1 (1 μM) immobilised on a streptavidin sensor chip, BECN1 dilutions as analyte; 20 mM Tris pH 8.0, 100 mM NaCl, 0.05% Tween 20; 30 µL/min
T3 construct: also called ATG6; source: size exclusion chromatography
T3 sequence (Q14457 whole entry): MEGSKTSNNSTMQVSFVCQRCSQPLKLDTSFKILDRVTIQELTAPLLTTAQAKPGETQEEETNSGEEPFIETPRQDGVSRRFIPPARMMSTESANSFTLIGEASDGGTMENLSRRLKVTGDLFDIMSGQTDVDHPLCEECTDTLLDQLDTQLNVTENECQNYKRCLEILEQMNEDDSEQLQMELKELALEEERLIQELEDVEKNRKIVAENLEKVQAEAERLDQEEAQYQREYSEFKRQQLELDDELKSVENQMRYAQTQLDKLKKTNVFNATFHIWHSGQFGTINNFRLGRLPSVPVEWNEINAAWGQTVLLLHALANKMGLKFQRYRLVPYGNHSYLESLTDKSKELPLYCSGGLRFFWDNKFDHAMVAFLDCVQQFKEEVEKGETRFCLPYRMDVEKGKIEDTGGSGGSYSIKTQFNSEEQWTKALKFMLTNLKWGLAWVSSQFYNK

B1: macrocyclic peptide B13, FAM-labelled (peptide)
chain: [dE]H[dF][dE]HA[Dap][dF][2Nal]R[dR]R[Dap]-{βAla-βAla-Lys(FAM)}
modifications: linker 7-13 via TMA; reading uncertain; also: TMA third attachment point not given here
Kd [1]: > 25 µM

B2: macrocyclic peptide B17, FAM-labelled (peptide)
chain: [Phg][dF]GDY[Dap]F[d2Nal][dR]R[dR]R[Dap]-{βAla-βAla-Lys(FAM)}
modifications: linker 6-13 via TMA; reading uncertain; also: TMA third attachment point not given here
Kd [1]: > 25 µM

YH[d2Nal]QS[Phe(4-F)][dL][Dap][Phe(4-Cl)][d2Nal][dR]R[dR]R[Dap]-{Lys(FAM)} (linker N-8-15 via Trimesoyl; not fully specified (N-terminus)) [macrocyclic peptide B7-131-2, FAM-labelled]
Kd [2]: 8.8 ± 0.9 µM

Y[dA]D[dY][dA][dL][Dap][Phe(4-Cl)][d2Nal][dR]R[dR]R[Dap]-{Lys(FAM)} (linker N-7-14 via Trimesoyl; not fully specified (N-terminus)) [macrocyclic peptide B7-133-2, FAM-labelled]
Kd [2]: 8.2 ± 1.2 µM

B3: macrocyclic peptide B22, FAM-labelled (peptide)
chain: [dV][Orn][dN]H[dA][Dap]F[d2Nal][dR]R[dR]R[Dap]-{βAla-βAla-Lys(FAM)}
modifications: linker 6-13 via TMA; reading uncertain; also: TMA third attachment point not given here
Kd [1]: > 25 µM

Y[Nle][dE]QG[dL][Dap][Phe(4-Cl)][d2Nal][dR]R[dR]R[Dap]-{Lys(FAM)} (linker N-7-14 via Trimesoyl; not fully specified (N-terminus)) [macrocyclic peptide B7-133-4, FAM-labelled]
Kd [2]: 6.5 ± 0.1 µM

Y[βAsp]HDH[dL][Dap][Phe(4-Cl)][d2Nal][dR]R[dR]R[Dap]-{Lys(FAM)} (linker N-7-14 via Trimesoyl; not fully specified (N-terminus)) [macrocyclic peptide B7-133-5, FAM-labelled]
Kd [2]: > 10 µM

QHS[dV][Dap][dF][2Nal]R[dR]R[Dap] (linker 5-11 via TMA; not fully specified (C-terminus); reading uncertain) [macrocyclic peptide C6, FAM-labelled]
Kd [1]: > 25 µM

IDA[Nle]H[Dap]F[2Nal]RRR[Dap] (linker 6-12 via TMA; not fully specified (C-terminus); reading uncertain) [macrocyclic peptide C9, FAM-labelled]
Kd [1]: > 25 µM

IHA[Orn][dK][Dap]F[2Nal]RRR[Dap] (linker 6-12 via TMA; not fully specified (C-terminus); reading uncertain) [macrocyclic peptide C19, FAM-labelled]
Kd [1]: > 25 µM

B4: FAM-labeled macrocyclic peptide B7-133-9 (peptide)
chain: Y[dV][dL][dY][Phe(4-F)][dL][Dap][Phe(4-Cl)][d2Nal][dR]R[dR]R[Dap]-{βAla-βAla-Lys(FAM)}
modifications: linker 7-14 via TMA; reading uncertain; also: TMA third attachment point not given here
Kd [3]: 2.2 ± 0.3 µM

B5: FAM-labeled macrocyclic peptide B13 (peptide)
chain: EHFEHAXFXRRRX
modifications: not fully specified; carboxyfluorescein (FAM) at the C-terminus through a β-Ala-β-Ala-Lys linker
Kd [4]: > 25 µM

B6: FAM-labeled macrocyclic peptide B17 (peptide)
chain: XFGDYXFXRRRRX
modifications: not fully specified; carboxyfluorescein (FAM) at the C-terminus through a β-Ala-β-Ala-Lys linker
Kd [4]: > 25 µM

B7: FAM-labeled macrocyclic peptide B22 (peptide)
chain: VXNHAXFXRRRRX
modifications: not fully specified; carboxyfluorescein (FAM) at the C-terminus through a β-Ala-β-Ala-Lys linker
Kd [4]: > 25 µM

B8: FAM-labeled macrocyclic peptide B7-133-5 (peptide)
chain: YDHDHLXFXRRRRX
modifications: not fully specified; same peptide as Dm35 (Table S3); bicyclic via TMA to Dap7 and Dap14; D2=isoAsp, D-Leu6, X7/X14=Dap, F8=4-chloro-Phe, X9=D-2-Nal, D-Arg10, D-Arg12; linker Lys(FAM) left out
Kd [4]: > 10 µM

B9: biotinylated full-length Etf-1 protein (natural protein, E. chaffeensis, UniProt Q2GG12 1-380, looked up)
chain: MLTFLKKGANVVIKAAITPTTSKLPHQESVGKYLGGMLKSIIPGQKDPAEKHFDLRMHNRTHKLGVELPARTRIDGHEQEVALKVPSYKLPYQTLQKFAAWQEQDKEGEVEETKKDTLTSLINPVSATQEFIRSNTADKYFEKLKALDQQLKEIGGKVTVNSTPGRYKQGLTIELDVSNKSRIAIEKDVRLVLEGLGINDEELVKTFTKRLYKSSTDKKMSSADIHTEKTSSNTDSKDNSNNQDHDIVSPAKRHGSDTVSAVQRQGDDILSSSQEQSSKTGSPTNSTGISNSDFSLTNPQNMPYSRTPMQSSQMLQQLQNQILMQQKPERIFSQAMPTVMQQEIDEIAEDLCQGLNEGPTQGNSNNIGKHFSNPGKVHAR
modifications: biotin (two equivalents of NHS-PEG4-D-Biotin, pH 8.0)
notes: source: E. coli BL21(DE3), purified (HisPur Cobalt resin, size exclusion chromatography), then biotinylated
Kd [5]: 0.06 ± 0.001 µM

B10: FAM-labeled macrocyclic peptide B7-131-1 (peptide)
chain: Y[dN][d2Nal]S[Phg][dL][dL][Dap][Phe(4-Cl)][d2Nal][dR]R[dR]R[Dap]-{βAla-βAla-Lys(FAM)}
modifications: linker 8-15 via TMA; reading uncertain; also: TMA third attachment point not given here
Kd [3]: 1.7 ± 0.2 µM

B11: FAM-labeled macrocyclic peptide B7-131-4 (peptide)
chain: Y[Phe(4-F)]D[Phg][dY][βAsp][dL][Dap][Phe(4-Cl)][d2Nal][dR]R[dR]R[Dap]-{βAla-βAla-Lys(FAM)}
modifications: linker 8-15 via TMA; reading uncertain; also: TMA third attachment point not given here
Kd [3]: ~1.5 µM

B12: FAM-labeled macrocyclic peptide B7-131-5 (peptide)
chain: YH[dP][d2Nal]DA[dL][Dap][Phe(4-Cl)][d2Nal][dR]R[dR]R[Dap]-{βAla-βAla-Lys(FAM)}
modifications: linker 8-15 via TMA; reading uncertain; also: TMA third attachment point not given here
Kd [3]: 2.9 ± 0.4 µM

— PMC9982066, “Inhibition of Ehrlichia chaffeensis infection by cell-permeable macrocyclic peptides that bind type IV secretion effector Etf-1” (PNAS Nexus, 2023)
